This assay deals with amyloid-beta oligomers prepared from synthetic Aβ1-42 (UniProt P05067). Briefly: cell-based or functional assay.
UniProt P05067, sequence (P05067 672-713 limits assumed): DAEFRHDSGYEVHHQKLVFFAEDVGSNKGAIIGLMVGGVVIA

As for “NUsc1 scFv expressed and secreted by neurons transduced with the AAV9 vector AAV-NUsc1”, the AβO binding to dendrites in hippocampal neurons (NU4 immunoreactivity) stood at 50 % decrease.

Source of the values: patent US11541086.
